# Data reported in article PMC9727770 (2023).
# Biological target: RBD of the SARS-CoV-2 L strain spike protein, soluble (SARS-CoV-2 (L strain), UniProt P0DTC2 319-541)
# Assay: BLI
row,Binder,Kd
1,"Eli Lilly Ly-CoV016 (antibody, V domains shown) VH: EVQLVESGGGLVQPGGSLRLSCAASGFTVSSNYMSWVRQAPGKGLEWVSVIYSGGSTFYADSVKGRFTISRDNSMNTLFLQMNSLRAEDTAVYYCARVLPMYGDYLDYWGQGTLVTVSS VL: not shown",203 nM
2,"Regn-10933 (antibody, V domains shown) VH: QVQLVESGGGLVKPGGSLRLSCAASGFTFSDYYMSWIRQAPGKGLEWVSYITYSGSTIYYADSVKGRFTISRDNAKSSLYLQMNSLRAEDTAVYYCARDRGTTMVPFDYWGQGTLVTVSS VL: DIQMTQSPSSLSASVGDRVTITCQASQDITNYLNWYQQKPGKAPKLLIYAASNLETGVPSRFSGSGSGTDFTFTISGLQPEDIATYYCQQYDNLPLTFGGGTKVEIK",14.4 nM
3,"Regn-10987 (antibody, V domains shown) VH: QVQLVESGGGVVQPGRSLRLSCAASGFTFSNYAMYWVRQAPGKGLEWVAVISYDGSNKYYADSVKGRFTISRDNSKNTLYLQMNSLRTEDTAVYYCASGSDYGDYLLVYWGQGTLVTVSS VL: QSALTQPASVSGSPGQSITISCTGTSSDVGGYNYVSWYQQHPGKAPKLMIYDVSKRPSGVSNRFSGSKSGNTASLTISGLQSEDEADYYCNSLTSISTWVFGGGTKLTVL",74.2 nM
